The values below are quoted from earlier work in paper PMC3462298.

Data set [1] concerns the target TAMRA-TRTK-12 (CapZ peptide) (Homo sapiens). Description: fluorescence polarization.
Data set [2] concerns the target TRTK-12 (UniProt P52907). Nature of the data set: fluorescence competition.

S100B (from UniProt P04631): the figures for the Kd in data set [1] and in data set [2] were 1200 nM and 2900 nM, respectively.
